Measured values as given in the nanobody polyreactivity screen of Harvey et al. (2022).

Experiment: yeast display, Sf9 membrane polyspecificity reagent, FACS + sequencing; frameworks hold sequencing errors
Summary of the method: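 Genes from sorted yeast were amplified by colony PCR, read by MiSeq 2 × 250 sequencing and filtered on CDR length. These cells carried a synthetic nanobody library in Saccharomyces cerevisiae BJ5465 and were sorted by FACS into low and high (top ~1%) gates on anti-HA and streptavidin fluorescence. Polyreactivity is labelled according to the gate of origin.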

| Sequence | polyreactivity (PSR sort gate) |
| --- | --- |
| QVQLVESGGGLVQAGGSLRLSCAASGGIFNSYTMGWYRQAPGKERELVAAITKRGGSTYYADSVKGRFTISRYNAKNTVYLQMNSLKPEDTAVYYCAAGATVQFDYWGQGTQVTVSS | high polyreactivity |
| QVQLVESGGGLVQAGGSLRLSCAASGIIFLGYARGWYRQAPGKERELVADIYSGVRTYYADSVKGRFTISRDNAKNTVYLQMNSLKPEDTAVYYCNATWTPYSSKQYYYWGQGTQVTVSS | low polyreactivity |
| QVQLVESGGGLVQAGGSLRLSCAASGSTFYLNAMGWYRQAPGKERELVAVITRSGGNTYYADSVKGRFTISRDNAKNTVYLQMNSLKPEDTAVYYCNKRPTGGKYEYWGQGTQVTVSS | high polyreactivity |
| QVQLVESGGGLVQAGGSLRLSCAASGFAFSYYAMGWYRQAPGKEREFVASIDWSGGSTYYADSVKGRFTISRDNAKNIVYLQMNSLKPEDTAVYYCAAELDYFPGYDYWGQGTQVTVSS | low polyreactivity |
| QVQLVESRGGLVQAGGSLRLSCAASGSTFKRYTMGWYRQAPGKESELVAAISTSSGSTYYADCVKGRFTISRDNAKNTVYLQMNSLKPDDSAVYYCAAVRHRQSYPKYNYWGQGTQVTVSS | high polyreactivity |
| QVQLVESGGGLVQAGGSLRLSCAASGSTFRYYAMGWYRQAPGKERELVAAISSSGGRTYYADSVKGRFTISRDNAKNTVYLQMNSLKPEDTAVYYCAALYLRYHYGTDFDYWGQGTKVTVSS | high polyreactivity |
| QVQLVESGGGLVQAGGSLRLSCAASGRIFTANAMGWYRQAPGKERELVAAISWRGGSTYYADSVKGRFTISRDNAKNTVYLQMNSLKPEDTAVYYCNKVGATWRQWFGYWGQGTQVTVSS | high polyreactivity |
| QVQLVESGGGLVQAGGSLRLSCAASGYIFQWYDMGWYRQAPGKERELVAAISVTTGSTYYADSVKGRFTISRDNAKNTVYLQMNSLKPEDTAVYYCAAVSWYRHDMYYWGQGTQVTVSS | low polyreactivity |
| QVQLVESGGGLVQAGGSLRLSCAASGRTFSLNTMGWYRQAPGTERELVATISYSGDRTYYADSVKGRFTISRDNAKNTVYLQMNSLKPEETAVYYCAAQYWGRSYAGRYDYWGQGTQVTVSS | high polyreactivity |
| QVQLVESGGGLVQAGASLRLSCAASGGIFVVYGMGWYRQAPGNERELVAAISWRGGSTYYADSVKGRFTISRDNAKNTVYLQMNSLKPEDTAVYYCAADQYYGGYDYWGQGTQVTVSS | low polyreactivity |
| QVQLVESGGGLVQAGGSLRLSCAASGSTFYAYAMGWYRQAPGKERELVAAISSDGTNYADSVKGRFTISRDNAKNTVYLQMNSLKPEDTAVFYCAADLLLYSSQDNDYWGQGTQVTVSS | low polyreactivity |
| QVQLVESGGGLVQAGGSLRLSCAASGSIFYGYAMGWYRQAPGKERELVAGISNGGSTNYADSVKGRFTISRDNAKNTVYLQMNSLKPEDTAVYYCNRDGTYVYHGGEYCGQGTQVTVSS | low polyreactivity |
| QVQLVESGGGLVQAGGSLRLSCAASGLTFGTNAMGWYRQAPGKERELVAAISTSSGSTYYADSVKGRFTISRDNAKKTVYLQMNSLKQEDTAVYYCAAVTVTKLSYYRYYYWGQGTQVTVSS | low polyreactivity |
| QVQLVESGGGLVQAGGSLRLSCAASGRTFDYNTMGWYRQAPGKVRELVAAISASGGSTYYADSVKGRFTISRDNAKNTVDLPMNSLKPEDTAVYYCNTYAGVEYYHWGQGTQVTVSS | low polyreactivity |
| QVQLVESGGGLVQAGGSLRLSCAASGRTFYYNTMGWYRQAPGKERELVATITSSGGRTYYADSVKGRFTISRDYAKNTVYLQMNSLKPEDTAVYYCNAALSRAFKHSTGYDYWGQGTQVTVSS | low polyreactivity |
| QVQLVESGGGLVQAGGSLRLSCAASGFIFTLYTMGWYRPAPGKERELVAAIDKKGSTYYADSVKGRFTISRDNAKNTVYLQMNSLKPEDTAVYYCAADDRYRGNREDYWGQGTQVTVSS | low polyreactivity |
| QVQLVETGVGLVQAGGILRLSCAASGSTFTNNGIGWYRQAPGKEREVVATNSWDGDSTYYAYSVKGRFSISRDTAKNTVYLQMNSLKPEDTAVYYCAADEWGSDSALNFEYWGQGTQVTVSS | low polyreactivity |
| QVQLVESGGGLVQAGGSLRLSCAASGSTSSTYAKGWYRQAPGKERELVATINWDGASTYYADSVKGRFTISRDNATNTVYLQMNSLKPEDTAVYYCAAQSGAVHFLEDDYWGQGTQVTVSS | low polyreactivity |
| QVQLVESAGGLVQAGGSLRLSCAASAFTFFDYVMGWYRQAPGKERELVAAISRNVGSTYYADSVKGRFTISRDNAKNTVYLQMNSLKPEDTAVYYCAGEPPPYEYDYWGQGTQVTVSS | high polyreactivity |
| QVQLVETGGGLVQAGGSLRLSCAASGLSFGRNAIGSYRQAPGKERELVAAISRSGGRTSYADSVKGRFTISRDTAKNTVYLQMNSLKPEDTAVYYCAARSDVYTHDYWGQATQVTVSS | high polyreactivity |
| QVQLVESGGGLVQAGGSLRLSCAASGSTIPNYAKGWYRQAPGKERELVARIRWNGDSTYYADSVKGRFTISRDNAKNTVYLQMNSLKPEDTAVYYCARQGYTLYRTRYRYDYWGQGTQVTASS | high polyreactivity |
| QVQLVESGGGLVQEGGSLRLSCAASGSTFYSNAMGWYRQARGKEREFLAAISWSGGSTYYADSVKGRFTISRDNAKNTVYFQMNSLKPEDTAVYYCAKKPYYYAFCGYGYWGQGSQVTVSS | high polyreactivity |

| Sequence | polyreactivity (PSR sort gate) |
| --- | --- |
| QVQLVESGGGLVQAGGSLRLSCAASGRTFFPYAMGWYRQAPGKERELVARISRTTGRTYYADSVKGRFTISRDNAKNTVFLQMNSLKPEDTAVYYCNAEGFRASGGYVRFEYWGQGTQVTVSS | high polyreactivity |
| QDQLVDSRGGLVKAGGSLRLSCSASGRTFYYYAMGWSRQAPGQERELVADINTRVTSTYYADSVKGRFTISRDNAKNTVYLQMNSLKPEDTGVYYCAVDPYGDSWEDWLRNYYYGYDYWGQGTQVTVSS | low polyreactivity |
| QVQLVESGGGLVQAGGILRLSCSASGYISKVYVMGWYRQAPGKERELVAAITNGGRTNYADSVKGRFTISRDNAKNTVYLQMNSLKPEDTAVYYCAARPRWHIRYNYWGQGTQVTVSS | high polyreactivity |
| QVQLVESGGGLVQAGGSLRLSCAASGSIFGKYVMGWYRQAPGKERELVAALTFGGGSTYYADSVKGRFTISRDNAKNTVSLQMNTLKPEETAVYYCAAKSYDDRLYRRPRDYWGQGTQVTLSS | high polyreactivity |
| QVQLVESGGGLVQAGGSLRLSCAASGRTFAGNAMGWYRQATGKERELVASITWTGGRTYYADSVKGRFTISRDNAKNTVYLQMNSLKPEDTAVYYCAARPDYYYFRGDYWGQGTQVTVSS | high polyreactivity |
| QVQLVESGGGLVQAGGSLRLSCAPSGSIFYINAMAWYRQAPGKERELVAAITSDGSTYYADSVKGRFTISRDNAKNTVYLQMNSLKPVDTAVYYFAADMTSDQYLYYWYWFYSWGQGTQVTVSS | low polyreactivity |
| QVQLVESGVGLDQAGGSLRLSCAASGSTFWWNNMVCYRQAPGKERELVAAITTGGGTYYADSVKGRFTISRDNAKNSVYLQMNSLKPEDTAVYYCAATVRSYGWYAYHYSTYGYWGKGTQVTVSS | low polyreactivity |
| QVQLVESGGGLVQAGRSLRLSCPAYGFTFVINDMGWYRQAPGKEREFVADITSGGDTYYADSVKGRFTISRDNAKNTVYLQMNSLKPEDTAVFYCAADIYPDWIYLLYGYWGQGTQVTVSS | low polyreactivity |
| QVHLVESGRGLVQAGGSLRLSCASSGSIFSRYAMGRYREAPGKVSELVAAISRRGGRTYYADSVKGRFTISRDYAKNTVYLQMKSLKPEVTAVYYCNDRRYNVPHPNRYDYWGQGTQVTVSS | high polyreactivity |
| QVQLVESGGGLVQAGGSLRLSCAASDAMGWYRRAPGKERELVASISNGVSTNYADSVKGRFTISRDNAKNTVYLQMNSLKPEVTAVYYCASDAKTVGRDDLYWYEVEFDYWGQGTQVSVSS | low polyreactivity |
| QVQLVESGGGLVQAGGSLRLSCAASGSTFSGNAMGWYRQAPGKERELVAAITSSGGSTYYADSVKGRFTISRDNAKNTVYLQMNSLKPEDTAVYYCAAKSRRTRRSYYWGQGTQVTVSS | high polyreactivity |
| QVQHVESGGGIVQAGGSLRLSCAASGLTITAYVMGWYRQAPGKERELVAAIRNSGGSTYYADSVKGRFTISRDNAKNTVYLQMISLKPEDTAVYYCAKQTSYWSRGYDYWGQGTQVTVSS | low polyreactivity |
| QVQLVESGGGLVQAGGSLRLSCAASGRTSNFNAMGWYRQATGKERELVAAINSDGSTYYADSVKGRFTISRDNAKNTVYLQMNSLKPEDTAVDYCAVRKRPHGYLAFGYWGQGTQVTVSS | low polyreactivity |
| QVQLVESGGGIFQAGGSLRLSCAASGFTFQYYAMGWYRQAPGKERELVAAISRRGGRTDYADSVKGRFTISRDNAKNTVYLQMNSLKPEDTAVYYCAAAVASPYDYWGLGTQVTVSS | high polyreactivity |
| QVQLVESGGGLVQAGGSLRLSCAASGSTFRYNTMGWDRQAPGKERELVAAISGGGGSTYYADSVKGRFTISRDNAKNTVYLQMNSLKPEDTAVYYCAKRHWYAGYVSSYTTRYDYWGQGTQVTVSS | low polyreactivity |
| QVQLVESGGGLVQAGGSLRLSCAASGFTFDYNAMGWYRQAPGKERELVAGITSGGRTYYADSVKGRFTISRDNAKNTVYLQMNSLKPEDTAVYYCAATPEPPAYGTPLVPYSYDYWGQGTQVTVSS | low polyreactivity |
| QVQLVESGGGLVQAGGSLRIICAASGRTFDRYAMRGYRQAPGKERELVAASTRRGTTTYYADSVKVRFSISRDYAKNTVYLQMYSLKPEDTAVYYCAAKRGCVSRPDYGANDESWGQGTQVTVSS | high polyreactivity |
| QVQLVESGGGLVQAGGSLRLSCAASGRTLSGNAMGWYRPAPGKERELVATITSDGGDTYYADSVKGRFTISRDNPKNTVYLQMNILKPEDTAVYYCNADYAGPKYVGYTFRSFTMDYWGQGTQVTVSS | low polyreactivity |
| QVQLVESGGGLVQAGGSLRISCAASGSTFSRNAMVWYRQAPGKERELVATISRSGRTNYADSVKGRFTISRDNAKNTVYLQMNSLKPEDTAVYYCNAGYRRSYEYWGQCTQVTVSS | low polyreactivity |
| QVQLVESGGGLVQAGGSLRLSCAASGSIFRTYAMGWYRQAPGKEWELVAAISGSGSRTYYADSVKGRFTISRDNAKNTVYLQMNSLKPEDTAVYYCAAQTFAYKVFFLYDYWGQGTQVTVSS | low polyreactivity |
| QVQLVESGGGLDQAGGSLRLSCDASGFIFVRYAMGWSRQAPGKERELVAGINSGGSTSYADSVKGRFTISRDNAKNTVYLQMNSLKPEDSAVYYCNADVYVGYEYEYWGQGTQVTVSS | low polyreactivity |
